Protein	% of WT kcat/KM (Factor X (FX), P00742)	KM (Factor X (FX), P00742)	kcat/KM for FX activation (Xase: FVIIIa, PC/PS vesicles, Ca2+) (Factor X (FX), P00742)	kcat (Factor X, P00742)	kcat (s^-1) of FX activation by FIXa variant in the Xase complex (FVIIIa, PC/PS vesicles, Ca2+), fluorogenic FXa read-out (Factor X (FX), P00742)	proteolytic cleavage and activation of purified factor X (Factor X (FX), P00742)	KM (Factor X, P00742)
FIXa-K247N/N249S/R338E/T343R/R403E/E410N (protein) chain 1: YNSGKLEEFVQGNLERECMEEKCSFEEAREVFENTERTTEFWKQYVDGDQCESNPCLNGGSCKDDINSYECWCPFGFEGKNCELDVTCNIKNGRCEQFCKNSADNKVVCSCTEGYRLAENQKSCEPAVPFPCGRVSVSQTSKLTR chain 2: VVGGEDAKPGQFPWQVVLNGKVDAFCGGSIVNEKWIVTAAHCVETGVKITVVAGEHNIEETEHTEQNRSVIRIIPHHNYNAAINKYNHDIALLELDEPLVLNSYVTPICIADKEYTNIFLKFGSGYVSGWGRVFHKGRSALVLQYLRVPLVDRATCLESTKFRIYNNMFCAGFHEGGRDSCQGDSGGPHVTEVEGTSFLTGIISWGEECAMKGKYGIYTKVSEYVNWIKNKTKLT	930%	25.1 nM	4.3e+08 M⁻¹ s⁻¹	10.8 s⁻¹	–	–	–
FIXa-Y155F/K247N/N249S/R318Y/R338E/T343R/E410N (protein) chain 1: YNSGKLEEFVQGNLERECMEEKCSFEEAREVFENTERTTEFWKQYVDGDQCESNPCLNGGSCKDDINSYECWCPFGFEGKNCELDVTCNIKNGRCEQFCKNSADNKVVCSCTEGYRLAENQKSCEPAVPFPCGRVSVSQTSKLTR chain 2: VVGGEDAKPGQFPWQVVLNGKVDAFCGGSIVNEKWIVTAAHCVETGVKITVVAGEHNIEETEHTEQNRSVIRIIPHHNYNAAINKYNHDIALLELDEPLVLNSYVTPICIADKEYTNIFLKFGSGYVSGWGRVFHKGYSALVLQYLRVPLVDRATCLESTKFRIYNNMFCAGFHEGGRDSCQGDSGGPHVTEVEGTSFLTGIISWGEECAMKGKYGIYTKVSRYVNWIKNKTKLT	1091%	17.7 nM	5e+08 M⁻¹ s⁻¹	7.7 s⁻¹	–	–	–
FIXa-Y155F/K247N/N249S/R318Y/R403E (protein) chain 1: YNSGKLEEFVQGNLERECMEEKCSFEEAREVFENTERTTEFWKQYVDGDQCESNPCLNGGSCKDDINSYECWCPFGFEGKNCELDVTCNIKNGRCEQFCKNSADNKVVCSCTEGYRLAENQKSCEPAVPFPCGRVSVSQTSKLTR chain 2: VVGGEDAKPGQFPWQVVLNGKVDAFCGGSIVNEKWIVTAAHCVETGVKITVVAGEHNIEETEHTEQNRSVIRIIPHHNYNAAINKYNHDIALLELDEPLVLNSYVTPICIADKEYTNIFLKFGSGYVSGWGRVFHKGYSALVLQYLRVPLVDRATCLRSTKFTIYNNMFCAGFHEGGRDSCQGDSGGPHVTEVEGTSFLTGIISWGEECAMKGKYGIYTKVSEYVNWIKEKTKLT	34%	109 nM	1.6e+07 M⁻¹ s⁻¹	1.7 s⁻¹	–	–	–
FIXa-R318Y/R338E/T343R (protein) chain 1: YNSGKLEEFVQGNLERECMEEKCSFEEAREVFENTERTTEFWKQYVDGDQCESNPCLNGGSCKDDINSYECWCPFGFEGKNCELDVTCNIKNGRCEQFCKNSADNKVVCSCTEGYRLAENQKSCEPAVPFPCGRVSVSQTSKLTR chain 2: VVGGEDAKPGQFPWQVVLNGKVDAFCGGSIVNEKWIVTAAHCVETGVKITVVAGEHNIEETEHTEQKRNVIRIIPHHNYNAAINKYNHDIALLELDEPLVLNSYVTPICIADKEYTNIFLKFGSGYVSGWGRVFHKGYSALVLQYLRVPLVDRATCLESTKFRIYNNMFCAGFHEGGRDSCQGDSGGPHVTEVEGTSFLTGIISWGEECAMKGKYGIYTKVSRYVNWIKEKTKLT	324%	–	1.5e+08 M⁻¹ s⁻¹	–	4.5 s⁻¹	catalyzes the proteolytic cleavage and activation of purified factor X to the same extent in the presence of (1) poly-L-lysine phospholipid/calcium, and (3) factor VIIIa/phospholipid/calcium	30 nM
FIXa-Y155F/R318Y/R338E/T343R (protein) chain 1: YNSGKLEEFVQGNLERECMEEKCSFEEAREVFENTERTTEFWKQYVDGDQCESNPCLNGGSCKDDINSYECWCPFGFEGKNCELDVTCNIKNGRCEQFCKNSADNKVVCSCTEGYRLAENQKSCEPAVPFPCGRVSVSQTSKLTR chain 2: VVGGEDAKPGQFPWQVVLNGKVDAFCGGSIVNEKWIVTAAHCVETGVKITVVAGEHNIEETEHTEQKRNVIRIIPHHNYNAAINKYNHDIALLELDEPLVLNSYVTPICIADKEYTNIFLKFGSGYVSGWGRVFHKGYSALVLQYLRVPLVDRATCLESTKFRIYNNMFCAGFHEGGRDSCQGDSGGPHVTEVEGTSFLTGIISWGEECAMKGKYGIYTKVSRYVNWIKEKTKLT	771%	–	3.6e+08 M⁻¹ s⁻¹	–	7.9 s⁻¹	–	24.2 nM
FIXa-Y155F/R318Y/T343R/R403E (protein) chain 1: YNSGKLEEFVQGNLERECMEEKCSFEEAREVFENTERTTEFWKQYVDGDQCESNPCLNGGSCKDDINSYECWCPFGFEGKNCELDVTCNIKNGRCEQFCKNSADNKVVCSCTEGYRLAENQKSCEPAVPFPCGRVSVSQTSKLTR chain 2: VVGGEDAKPGQFPWQVVLNGKVDAFCGGSIVNEKWIVTAAHCVETGVKITVVAGEHNIEETEHTEQKRNVIRIIPHHNYNAAINKYNHDIALLELDEPLVLNSYVTPICIADKEYTNIFLKFGSGYVSGWGRVFHKGYSALVLQYLRVPLVDRATCLRSTKFRIYNNMFCAGFHEGGRDSCQGDSGGPHVTEVEGTSFLTGIISWGEECAMKGKYGIYTKVSEYVNWIKEKTKLT	154%	–	7.1e+07 M⁻¹ s⁻¹	–	5 s⁻¹	–	72.7 nM
FIXa-Y155F/K247N/N249S/R318Y/E410N (protein) chain 1: YNSGKLEEFVQGNLERECMEEKCSFEEAREVFENTERTTEFWKQYVDGDQCESNPCLNGGSCKDDINSYECWCPFGFEGKNCELDVTCNIKNGRCEQFCKNSADNKVVCSCTEGYRLAENQKSCEPAVPFPCGRVSVSQTSKLTR chain 2: VVGGEDAKPGQFPWQVVLNGKVDAFCGGSIVNEKWIVTAAHCVETGVKITVVAGEHNIEETEHTEQNRSVIRIIPHHNYNAAINKYNHDIALLELDEPLVLNSYVTPICIADKEYTNIFLKFGSGYVSGWGRVFHKGYSALVLQYLRVPLVDRATCLRSTKFTIYNNMFCAGFHEGGRDSCQGDSGGPHVTEVEGTSFLTGIISWGEECAMKGKYGIYTKVSRYVNWIKNKTKLT	155%	48.8 nM	7.2e+07 M⁻¹ s⁻¹	3.4 s⁻¹	–	–	–
FIXa-K247N/N249S/T343R/R403E/E410N (protein) chain 1: YNSGKLEEFVQGNLERECMEEKCSFEEAREVFENTERTTEFWKQYVDGDQCESNPCLNGGSCKDDINSYECWCPFGFEGKNCELDVTCNIKNGRCEQFCKNSADNKVVCSCTEGYRLAENQKSCEPAVPFPCGRVSVSQTSKLTR chain 2: VVGGEDAKPGQFPWQVVLNGKVDAFCGGSIVNEKWIVTAAHCVETGVKITVVAGEHNIEETEHTEQNRSVIRIIPHHNYNAAINKYNHDIALLELDEPLVLNSYVTPICIADKEYTNIFLKFGSGYVSGWGRVFHKGRSALVLQYLRVPLVDRATCLRSTKFRIYNNMFCAGFHEGGRDSCQGDSGGPHVTEVEGTSFLTGIISWGEECAMKGKYGIYTKVSEYVNWIKNKTKLT	285%	–	1.3e+08 M⁻¹ s⁻¹	–	8 s⁻¹	–	60 nM
FIXa-Y155F/K247N/N249S/R338E/T343R (protein) chain 1: YNSGKLEEFVQGNLERECMEEKCSFEEAREVFENTERTTEFWKQYVDGDQCESNPCLNGGSCKDDINSYECWCPFGFEGKNCELDVTCNIKNGRCEQFCKNSADNKVVCSCTEGYRLAENQKSCEPAVPFPCGRVSVSQTSKLTR chain 2: VVGGEDAKPGQFPWQVVLNGKVDAFCGGSIVNEKWIVTAAHCVETGVKITVVAGEHNIEETEHTEQNRSVIRIIPHHNYNAAINKYNHDIALLELDEPLVLNSYVTPICIADKEYTNIFLKFGSGYVSGWGRVFHKGRSALVLQYLRVPLVDRATCLESTKFRIYNNMFCAGFHEGGRDSCQGDSGGPHVTEVEGTSFLTGIISWGEECAMKGKYGIYTKVSRYVNWIKEKTKLT	1579%	15.3 nM	7.3e+08 M⁻¹ s⁻¹	10.6 s⁻¹	–	–	–
FIXa-Y155F/K247N/N249S/R338E/R403E (protein) chain 1: YNSGKLEEFVQGNLERECMEEKCSFEEAREVFENTERTTEFWKQYVDGDQCESNPCLNGGSCKDDINSYECWCPFGFEGKNCELDVTCNIKNGRCEQFCKNSADNKVVCSCTEGYRLAENQKSCEPAVPFPCGRVSVSQTSKLTR chain 2: VVGGEDAKPGQFPWQVVLNGKVDAFCGGSIVNEKWIVTAAHCVETGVKITVVAGEHNIEETEHTEQNRSVIRIIPHHNYNAAINKYNHDIALLELDEPLVLNSYVTPICIADKEYTNIFLKFGSGYVSGWGRVFHKGRSALVLQYLRVPLVDRATCLESTKFTIYNNMFCAGFHEGGRDSCQGDSGGPHVTEVEGTSFLTGIISWGEECAMKGKYGIYTKVSEYVNWIKEKTKLT	299%	40.9 nM	1.4e+08 M⁻¹ s⁻¹	5.3 s⁻¹	–	–	–
FIXa-Y155F/K247N/N249S/R318Y/R338E (protein) chain 1: YNSGKLEEFVQGNLERECMEEKCSFEEAREVFENTERTTEFWKQYVDGDQCESNPCLNGGSCKDDINSYECWCPFGFEGKNCELDVTCNIKNGRCEQFCKNSADNKVVCSCTEGYRLAENQKSCEPAVPFPCGRVSVSQTSKLTR chain 2: VVGGEDAKPGQFPWQVVLNGKVDAFCGGSIVNEKWIVTAAHCVETGVKITVVAGEHNIEETEHTEQNRSVIRIIPHHNYNAAINKYNHDIALLELDEPLVLNSYVTPICIADKEYTNIFLKFGSGYVSGWGRVFHKGYSALVLQYLRVPLVDRATCLESTKFTIYNNMFCAGFHEGGRDSCQGDSGGPHVTEVEGTSFLTGIISWGEECAMKGKYGIYTKVSRYVNWIKEKTKLT	632%	26.3 nM	2.9e+08 M⁻¹ s⁻¹	7.5 s⁻¹	–	–	–
FIXa-Y155F/K247N/N249S/R318Y/T343R (protein) chain 1: YNSGKLEEFVQGNLERECMEEKCSFEEAREVFENTERTTEFWKQYVDGDQCESNPCLNGGSCKDDINSYECWCPFGFEGKNCELDVTCNIKNGRCEQFCKNSADNKVVCSCTEGYRLAENQKSCEPAVPFPCGRVSVSQTSKLTR chain 2: VVGGEDAKPGQFPWQVVLNGKVDAFCGGSIVNEKWIVTAAHCVETGVKITVVAGEHNIEETEHTEQNRSVIRIIPHHNYNAAINKYNHDIALLELDEPLVLNSYVTPICIADKEYTNIFLKFGSGYVSGWGRVFHKGYSALVLQYLRVPLVDRATCLRSTKFRIYNNMFCAGFHEGGRDSCQGDSGGPHVTEVEGTSFLTGIISWGEECAMKGKYGIYTKVSRYVNWIKEKTKLT	549%	42.1 nM	2.5e+08 M⁻¹ s⁻¹	10.3 s⁻¹	–	–	–

Factor X, P00742, sequence (P00742 whole entry, looked up): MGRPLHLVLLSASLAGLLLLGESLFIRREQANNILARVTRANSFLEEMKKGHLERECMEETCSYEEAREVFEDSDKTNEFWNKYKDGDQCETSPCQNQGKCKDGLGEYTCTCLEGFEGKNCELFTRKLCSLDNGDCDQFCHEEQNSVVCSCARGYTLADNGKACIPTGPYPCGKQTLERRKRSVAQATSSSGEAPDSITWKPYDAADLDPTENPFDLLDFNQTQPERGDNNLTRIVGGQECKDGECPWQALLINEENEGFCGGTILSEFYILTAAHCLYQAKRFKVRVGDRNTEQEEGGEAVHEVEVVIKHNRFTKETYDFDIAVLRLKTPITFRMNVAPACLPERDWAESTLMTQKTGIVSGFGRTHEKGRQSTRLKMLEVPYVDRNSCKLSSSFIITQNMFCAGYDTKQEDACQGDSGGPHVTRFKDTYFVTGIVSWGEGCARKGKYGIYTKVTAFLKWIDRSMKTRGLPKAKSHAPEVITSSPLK
Factor X (FX), P00742, sequence (P00742 whole entry, looked up): as above
